First the molecules themselves.
B1: glmS ribozyme (parent)
chain: AUAAAAGCGCCAGAACUACAGAAAUGUAGUUGACGAGGAGGAGGUUUAUCGAAUUUUCGGCGGAUGCCUCCAAA

Details in all cases: with glucosamine-6-phosphate
Variants of B1 are the subject of data set [1]. Briefly: self-cleavage kobs at 40 uM GlcN6P; higher = faster cleavage; RNA array. Put shortly: (§1)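 Ribozyme variants carrying barcodes were transcribed in situ on sequenced MiSeq chips by E. coli RNA polymerase and tracked at 37 °C with a hybridised Cy3 probe. They were exposed to 40 μM to 10 mM glucosamine-6-phosphate in HEPES/KCl/Mg(OAc)2 buffer. kobs came from exponential decay fits of normalised per-tile medians, and kcat and KM from weighted Michaelis–Menten fits.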

The variants in data set [2] derive from B1. As to the kind of experiment: self-cleavage kobs at 160 uM GlcN6P; higher = faster cleavage; RNA array. In a few lines:
as §1

In data set [3] the parent is B1. As to the kind of experiment: self-cleavage kobs at 640 uM GlcN6P; higher = faster cleavage; RNA array. In a few lines: as §1
Data set [4] covers variants of B1. As to the kind of experiment: self-cleavage kobs at 2500 uM GlcN6P; higher = faster cleavage; RNA array. In a few lines:
as §1

In data set [5] the parent is B1. As to the kind of experiment: self-cleavage kobs at 10000 uM GlcN6P; higher = faster cleavage; RNA array. Put shortly: as §1

± gives the standard error. Variants at the floor of the assay were thinned out.

Regarding AUAAAAGCGCCAGAACUACAGAAAUGUAGUUGACGAGGAGGAGGUUUAUGGAAUUUUCAGCGGAUGCCUCCAAA [C50G G59A], the “self-cleavage kobs at 40 uM GlcN6P” value with glucosamine-6-phosphate [1] was determined as 4.42e-05 ± 2.2e-05 s⁻¹. Further, the “self-cleavage kobs at 160 uM GlcN6P” value with glucosamine-6-phosphate [2] came to 8.57e-05 ± 2.1e-05 s⁻¹.
With AUAAAUGCGCCAGAACUACAGAAAUGUAGUUGACGAGGAGGAGGUUUAUCGAAUUUUCGGCGUAUGCCUCCAAA [A6U G63U], the “self-cleavage kobs at 40 uM GlcN6P” value with glucosamine-6-phosphate [1] is below 1e-05 s⁻¹. For the same variant, the “self-cleavage kobs at 160 uM GlcN6P” value with glucosamine-6-phosphate [2] is below 1e-05 s⁻¹. Besides, the “self-cleavage kobs at 640 uM GlcN6P” value with glucosamine-6-phosphate [3] was below 1e-05 s⁻¹. Further, the “self-cleavage kobs at 2500 uM GlcN6P” value with glucosamine-6-phosphate [4] is below 1e-05 s⁻¹.
Turning to AUAAAAGCGCCAGAACUACAGAAAUGUAGUUGACGAGGAUGAGGUUUAUCGAAAUUUCGGCGGAUGCCUCCAAA [G40U U54A], in the data set with glucosamine-6-phosphate [1], the “self-cleavage kobs at 40 uM GlcN6P” value was determined as 7.88e-05 ± 1.1e-05 s⁻¹. For the same variant, the “self-cleavage kobs at 160 uM GlcN6P” value with glucosamine-6-phosphate [2] is 0.000207 ± 2.7e-05 s⁻¹. Besides, the “self-cleavage kobs at 640 uM GlcN6P” value in the data set with glucosamine-6-phosphate [3] is 0.000391 ± 5.1e-05 s⁻¹. Also, the “self-cleavage kobs at 2500 uM GlcN6P” value with glucosamine-6-phosphate [4] turned out to be 0.00192 ± 0.00039 s⁻¹. Also, in the data set with glucosamine-6-phosphate [5], the “self-cleavage kobs at 10000 uM GlcN6P” value was 0.0025 ± 0.00054 s⁻¹.
For the variant AUAAAAGCGCCAGAACUACAGAAAUGUAGUUGACGAGGAGGAGGUUUAUCGAAUUUUCGGCGGAUACCUCAAAA [G66A C71A], in the data set with glucosamine-6-phosphate [1], the “self-cleavage kobs at 40 uM GlcN6P” value was determined as 0.000146 ± 2.1e-05 s⁻¹. Also, the “self-cleavage kobs at 160 uM GlcN6P” value with glucosamine-6-phosphate [2] is 0.00048 ± 9.5e-05 s⁻¹. Also, the “self-cleavage kobs at 640 uM GlcN6P” value in the data set with glucosamine-6-phosphate [3] was found to be 0.0014 ± 0.00036 s⁻¹. The “self-cleavage kobs at 10000 uM GlcN6P” value with glucosamine-6-phosphate [5] was determined as 0.00424 ± 0.00059 s⁻¹.
With AUAAAAACGCCAGAACUACAGAAAUGUAGUUGACGCGGAGGAGGUUUAUCGAAUUUUCGGCGGAUGCCUCCAAA [G7A A36C], the “self-cleavage kobs at 40 uM GlcN6P” value with glucosamine-6-phosphate [1] was below 1e-05 s⁻¹. Further, in the data set with glucosamine-6-phosphate [2], the “self-cleavage kobs at 160 uM GlcN6P” value is below 1e-05 s⁻¹. The “self-cleavage kobs at 10000 uM GlcN6P” value in the data set with glucosamine-6-phosphate [5] was below 1e-05 s⁻¹.
Consider AUAAAAGCGCCAGAACUACAGAAAUGUAGUUGACGAGGACAAGGUUUAUCGAAUUUUCGGCGGAUGCCUUCAAA [G40C G41A C70U], for which, in the data set with glucosamine-6-phosphate [1], the “self-cleavage kobs at 40 uM GlcN6P” value was found to be 8.35e-05 ± 2.8e-05 s⁻¹. The “self-cleavage kobs at 2500 uM GlcN6P” value with glucosamine-6-phosphate [4] turned out to be 0.000861 ± 0.00023 s⁻¹.
Regarding AUAAAAGCGGCAGAACUACAGAAAUGUAGUUGACGAGCAGGAGGUUUAUCGAAUUUUCGGCGGAUGCCGCCAAA [C10G G38C U69G], the “self-cleavage kobs at 40 uM GlcN6P” value in the data set with glucosamine-6-phosphate [1] was below 1e-05 s⁻¹. Besides, in the data set with glucosamine-6-phosphate [3], the “self-cleavage kobs at 640 uM GlcN6P” value was below 1e-05 s⁻¹.
Regarding AUAAAAGCGCCAGAACUACAGAAAUGUAGUUGACGAGGGGGAGGUUGAUCGAAUUUUCGGCGGAUGCCUCCAAA [A39G U47G], the “self-cleavage kobs at 40 uM GlcN6P” value with glucosamine-6-phosphate [1] turned out to be 0.000644 ± 0.0001 s⁻¹. Further, the “self-cleavage kobs at 640 uM GlcN6P” value with glucosamine-6-phosphate [3] came out at 0.00207 ± 0.00049 s⁻¹. Besides, the “self-cleavage kobs at 2500 uM GlcN6P” value in the data set with glucosamine-6-phosphate [4] was 0.0155 ± 0.0035 s⁻¹. Besides, in the data set with glucosamine-6-phosphate [5], the “self-cleavage kobs at 10000 uM GlcN6P” value worked out at 0.0237 ± 0.0069 s⁻¹.
For AUAAAAGCGCCAGAACUACAGAAAUGUAGAUGACGAGGAGGAGGUUUAUCGAAUUUUGGGCGGACGCCUCCAAA [U30A C58G U65C], the “self-cleavage kobs at 40 uM GlcN6P” value in the data set with glucosamine-6-phosphate [1] was below 1e-05 s⁻¹.
For the variant AUAAAAGCGCCAGAACUACAGAAAUGUACUUGACGAGGAGGUGGUUUAUCGAAUUUUCGGCGGACGCCUCCAAA [G29C A42U U65C], the “self-cleavage kobs at 40 uM GlcN6P” value with glucosamine-6-phosphate [1] was below 1e-05 s⁻¹. Also, the “self-cleavage kobs at 2500 uM GlcN6P” value with glucosamine-6-phosphate [4] is below 1e-05 s⁻¹. The “self-cleavage kobs at 10000 uM GlcN6P” value with glucosamine-6-phosphate [5] is below 1e-05 s⁻¹.
AUAAACGCGCCAGAACUACAGAAAUGUAGUUGAAGAGGAGGAGGUUUAUCGAAUUUUAGGCGGAUGCCUCCAAA [A6C C34A C58A]: in the data set with glucosamine-6-phosphate [1], the “self-cleavage kobs at 40 uM GlcN6P” value was below 1e-05 s⁻¹. Also, in the data set with glucosamine-6-phosphate [5], the “self-cleavage kobs at 10000 uM GlcN6P” value is below 1e-05 s⁻¹.
For AUAAAAGCGCCAGAACUACAGAAAUGUAGUUGACCAGGAAGAGGUUUAUCGAAUUUUCGGCGGAUGCCUCCAAA [G35C G40A], the “self-cleavage kobs at 40 uM GlcN6P” value with glucosamine-6-phosphate [1] is below 1e-05 s⁻¹. In addition, the “self-cleavage kobs at 160 uM GlcN6P” value in the data set with glucosamine-6-phosphate [2] is below 1e-05 s⁻¹. Moreover, in the data set with glucosamine-6-phosphate [3], the “self-cleavage kobs at 640 uM GlcN6P” value was below 1e-05 s⁻¹. For the same variant, the “self-cleavage kobs at 2500 uM GlcN6P” value with glucosamine-6-phosphate [4] is below 1e-05 s⁻¹. Besides, in the data set with glucosamine-6-phosphate [5], the “self-cleavage kobs at 10000 uM GlcN6P” value is below 1e-05 s⁻¹.

These data come from the supplement of paper PMC7125110.
